Results as given in publication PMC2963697.

How the values were obtained:
[1] = substrate: C=CC=C(O)C(=O)O; assay: UV spectrophotometric tautomerase assay, steady state; format: biochemical, Archaeoglobus fulgidus; details: reaction 3 -> 6, 20 mM sodium phosphate, pH 7.3, 23 °C
[2] = substrate: C=CC=C(O)C(=O)O; assay: as above; format: biochemical, Helicobacter pylori; details: reaction 3 -> 6, 20 mM sodium phosphate, pH 7.3, 23 °C

B1: AfDmpI (Archaeoglobus fulgidus DSM 4304) (protein)
chain: PVLIVYGPKLDVGKKREFVERLTSVAAEIYGMDRSAITILIHEPPAENVGVGGKLIADRERE
B1 showed a Km [1] of 90 ± 30 µM, a kcat [1] of 0.1 ± 0.02 s⁻¹ and a kcat/Km [1] of 1100 M⁻¹ s⁻¹.

B2: HpDmpI (Helicobacter pylori 26695) (protein)
chain: PFINIKLVPENGGPTNEQKQQLIEGVSDLMVKVLNKNKASIVVIIDEVDSNNYGLGGESVHHLRQKN
In the case of B2, the Km [2] is reported as 190 ± 40 µM, the kcat [2] is reported as 2.5 ± 0.3 s⁻¹ and the kcat/Km [2] is reported as 13000 M⁻¹ s⁻¹.
